# In US12582683B2, “Prostate neoantigens and their uses” (Jansen Biotech, Inc., priority 2019, dated 2026):
# Tests used:
# [1] = biological target: HLA-B*07:02 (Homo sapiens, UniProt P01889); assay: In vitro binding of neoantigens to class I MHC (UV peptide exchange, HLA class I ELISA); details: 100% = same binding affinity as positive control peptide
# Experimental: (§1) In Vitro Binding of Neoantigens to Class I MHC
# (§2) The 9 mer peptides identified by bioinformatics analysis were analyzed for their binding propensities to 6 common HLA class I alleles (HLA-A*01:01, A*02:01, A*03:01, A*24:02, B*07:02, B*08:01). The principle of the method is briefly described below and consists of two parts, one involving exchange of peptide with a positive control induced by Ultraviolet (UV) radiation, and the second is an enzyme immunoassay to detect stable HLA-peptide and empty HLA complexes.
# (§3) HLA-bound peptides are critical for the stability of the HLA complex.
# (§4) The exchange efficiency between the peptide of interest and Pos was analyzed using an HLA class I ELISA. The combined technologies allowed the identification of ligands for an HLA molecule of interest which are potentially immunogenic.
# (§5) The UV control represented UV-irradiation of conditional HLA class I complex in the absence of a rescue peptide. […] To this end streptavidin was bound onto polystyrene microtiter wells. After washing and blocking, HLA complex present in exchange reaction mixtures or ELISA controls was captured by the streptavidin on the microtiter plate via its biotinylated heavy chain. Non-bound material was removed by washing. Subsequently, horseradish peroxidase (HRP)-conjugated antibody to human B2M was added. […] In the latter case B2M was removed during the washing step. After removal of non-bound HRP conjugate by washing, a substrate solution was added to the wells. A coloured product formed in proportion to the amount of intact HLA complex present in the samples. After the reaction was terminated by the addition of a stop solution, absorbance was measured in a microtiter plate reader. […] Suboptimal HLA binding of peptides with a moderate to low affinity for HLA class I molecules can also be detected by this ELISA technique (Rodenko, B et al. (2006) Nature Protocols 1: 1120-32).
# (§6) Binding of select neoepitopes to HLA-A*01:01, HLA-A* 02:01, HLA-A* 03:01, HLA-A*24:02, HLA-1B*07:02 and HLA-1B*08:01 was evaluated using the assay described in Example 1. […] As a criterion for further evaluation, peptides with an exchange rate of at least 10% with the corresponding Pos peptide for at least one of the 6 HLA alleles that we considered for further evaluation. […] Higher percentages correspond to stronger binding to the HLA allele.
# [2] = biological target: HLA-A*03:01 (Homo sapiens, UniProt P04439); assay: as above; details: 100% = same binding affinity as positive control peptide
# Experimental: as §1, §2, §3, §4, §5, §6
# [3] = biological target: HLA-A*01:01 (Homo sapiens, UniProt P04439, A114D/A174V/A182V/D101N/D185E/E176A/E190D/L180R/Q94H/R68K/S129P/T187R/V100A/V91M/W191G); assay: as above; details: 100% = same binding affinity as positive control peptide
# Experimental: as §1, §2, §3, §4, §5, §6
# [4] = biological target: HLA-A*24:02 (Homo sapiens, UniProt P04439, D101N/D140Y/D185E/E176V/E190D/F33S/G103R/G107R/I119L/I121M/I306V/K335N/L105A/L180Q/L300P/N151K/N90K/Q86E/Q94H/R106L/R138H/R89G/T104I/T345S/V100E/W191G/Y123F); assay: as above; details: 100% = same binding affinity as positive control peptide
# Experimental: as §1, §2, §3, §4, §5, §6
# [5] = biological target: HLA-A*02:01 (Homo sapiens, UniProt P04439, D140Y/D185E/D98H/E176V/E277Q/G131W/G231S/I119V/I121R/I166T/I218V/L300P/L318F/N151K/N90K/P208A/P217A/Q86G/Q94H/R138H/R169H/T345S); assay: as above; details: 100% = same binding affinity as positive control peptide
# Experimental: as §1, §2, §3, §4, §5, §6
# [6] = system: CD8+ T cells in PBMCs from patients with metastatic castrate-resistant prostate cancer; assay: Patient PBMC restimulation assay (in vitro immunogenicity of neoantigens); type: cell-based, human; set-up: Maximum frequency of TNFα+IFNγ+CD8+ T cells: unit not given here; details: for Maximum fold change over: fold change over negative control, highest across the PBMC donors evaluated, 9 mer peptide; for Maximum frequency of TNFα+IFNγ+CD8+ T cells: greatest frequency among all tested PBMC donors, negative control 0.011-0.8
# Experimental: In Vitro Immunogenicity Assessment of Neoantigens (“Patient PBMC Restimulation Assay”)
# PBMCs from human patients with metastatic castrate-resistant prostate cancer were thawed using media (RPMI 1640 supplemented with Glutamax, 10% HI FBS, and 1× Sodium Pyruvate). Cells were counted and plated in a 96 well round bottom microplate at a concentration of 250,000 viable cells per well. Lyophilized peptides were solubilized in 100% DMSO and diluted in media to 10 μg/mL. Neoantigen peptides were added in equal volume to PBMCs for a final concentration of 5 μg/mL. CEF Peptide Pool “Plus” (Cellular Technologies, Ltd.) was utilized as a positive control and DMSO at the same final concentration as the experimental peptides was utilized as a negative control. Human IL-15 (Peprotech) was added to all wells at final concentration of 10 ng/mL.
# Plates were incubated at 37° C. (5% CO2) for a total of 13 days. Media was refreshed every 2 days with IL-15 (10 ng/mL final concentration) and IL-2 (R&D systems, 10 IU/mL final concentration). On day 12, PBMCs were re-stimulated with identical experimental peptides or controls, at same concentration as peptide stimulation on Day 1. After 1-hour incubation, protein Inhibitor Cocktail (eBioscience) was added to every well and plate was incubated overnight.
# On day 13, cells were stained for intracellular flow cytometry analysis. The cells were washed with PBS and stained with Live/Dead Fixable Aqua Dead Cell stain (Thermo-Fisher). Following the live/dead stain, cells were blocked using Biotin-Free Fe Receptor Blocker (Accurate Chemical & Scientific Corp). Extracellular cellular flow panel (1 μL/antibody per well in 50 μL) consisted of CD3 PerCP-Cy5.5 (Biolegend), CD4 BV421 (Biolegend), and CD8 APC-Cy7 (Biolegend). After extracellular staining, cells were fixed using Foxp3/Transcription Factor Staining Buffer Set (eBioscience) and stained for intracellular proteins (1:50 dilution) using TNFα FITC (R&D Systems) and IFNγ BV785 (Biolegend). Cells were washed and resuspended in stain buffer and analyzed using a BD Celesta flow cytometer.
# Flow cytometry cell staining analysis was completed using FlowJo v10. Cells were gated on live, singlet, CD3+ cells. The CD8+ T cells were analyzed for TNFα/IFNγ expression and the frequency of double positive TNFα/IFNγ CD8+ T cells was recorded. Responses were assessed to be positive when the frequency of double positive TNFα/IFNγ CD8+ T cells due to stimulation with an experimental peptide was increased greater than or equal to 2-fold over the DMSO only negative control for that patient. Peptides were analyzed in 1 to 7 patient samples.
# The 9 mer fragments shown in Table 13 were assessed for their ability to activate T cells using the Patient PBMC restimulation assay described in Example 1 using TNFα and IFNγ production by CD8^+ T cells as a readout. Self-antigens shown in Table 15 were also used in the assays. […] PBMCs from ten patients were evaluated.
Molecule,"Exchange rate with Pos peptide, HLA-B*07:02 [1] [%]","Exchange rate with Pos peptide, HLA-A*03:01 [2] [%]","Exchange rate with Pos peptide, HLA-A*01:01 [3] [%]","Exchange rate with Pos peptide, HLA-A*24:02 [4] [%]","Exchange rate with Pos peptide, HLA-A*02:01 [5] [%]",Maximum fold change over [6],Maximum frequency of TNFα+IFNγ+CD8+ T cells [6],"Immunogenic ([6]; patient PBMC restimulation, CD8+ T cells)"
"SLYHREKQLIAMDSAI (listed as Homo sapiens) [Neoantigen P22, 5LC45A3-ELK4]",8.3,4.8,4.4,0,46.9,5.00,0.120,–
"DSSGNLLERNSFEVRV (listed as Homo sapiens) [Neoantigen P73, TP53 (G266E)]",8.7,3.5,2.1,0.5,89.2,2.97,0.110,–
"MFENGCYLGRQKRFKCE (listed as Homo sapiens) [Neoantigen P61, FOXAl.p.R261G]",–,2.1,1.7,90.3,5.8,–,0.084,–
"NSKMALNSLNSIDDAQLTRIAPPRSHCCFWEVNAP (listed as Homo sapiens) [Neoantigen P35, TMPRSS2-ERG]",–,–,–,–,–,2.67,0.064,–
"CYLRRQKRLKCEKQPGA (listed as Homo sapiens) [Neoantigen P60, FOXA1.p.F266L]",6.1,36.6,3.1,0.9,7.9,2.08,0.340,–
"GYLRMQGLMAQRLLLR (listed as Homo sapiens) [Neoantigen P97, FOXRED2-TXN2]",7,39,2.5,0.1,4.6,4.55,0.160,–
"LHPDSGNMVENGCYLRR (listed as Homo sapiens) [Neoantigen P59, FOXA1 (F254V)]",–,–,–,–,–,10.75,3.010,–
"GVPGDSTRRAVRRMNTF [P17] (listed as Homo sapiens) [Neoantigen P17, MSMB-NOCA4]",38.7,3.8,4.9,0.1,–,–,0.130,–
"LHPQRETFTPRWSGANYWKLAFPVGAEGTFPAAATQRGVVRPA (listed as Homo sapiens) [Neoantigen P27, FAM126B-ORC2]",–,–,–,–,–,3.43,0.430,–
"MAGGVLRRLLCREPDRDGDKGASREETVVPLHIGDPVVLPGIGQCYSALF (listed as Homo sapiens) [Neoantigen P37, TSTD1-F11R]",–,–,–,–,–,3.13,1.160,–
"MMAEHSVHVPKILSGK (MMAEIISVHVPKILSGK; listed as Homo sapiens) [Neoantigen P58, AR (Q903H)]",–,32.5,2.5,0.2,11.8,–,5.370,–
"QMAVIQYSCMGLMVFAM (listed as Homo sapiens) [Neoantigen P50, AR (W742C)]",–,–,–,–,–,5.14,0.190,–
"DDRNTFDIVWWCPMSRLRLALTVPPSTTTTCVTVPAWAA [P46] (listed as Homo sapiens) [Neoantigen P46, TP53 (R213D)]",64.8,10.3,–,−0.4,14.4,2.33,0.140,–
"VFFKRAAEGFFRMNKLKESSDTNPKPYCMAAPMGLTENNRNRKKSYRETNLKAVSWPLNHT [P77] (peptide, listed as Homo sapiens, AR-V3) VFFKRAAEGFFRMNKLKESSDTNPKPYCMAAPMGLTENNRNRKKSYRETNLKAVSWPLNHT",–,–,–,–,–,3.24,0.160,Yes
